Literature values as cited in US20220089455A1, “METHOD FOR PRODUCING NANOPARTICLE HAVING METAL PARTICLE WHICH CONTAINS IRON OXIDE TO WHICH ONE OR MORE HYDROPHILIC LIGANDS ARE COORDINATION BONDED” (ASTELLAS PHARMA INC., priority 2018, published 2022).

Settings: standard used for SEC comparison

B1: ovalbumin (protein, UniProt P01012 2-386, looked up)
Ovalbumin: GSIGAASMEFCFDVFKELKVHHANENIFYCPIAIMSALAMVYLGAKDSTRTQINKVVRFDKLPGFGDSIEAQCGTSVNVHSSLRDILNQITKPNDVYSFSLASRLYAEERYPILPEYLQCVKELYRGGLEPINFQTAADQARELINSWVESQTNGIIRNVLQPSSVDSQTAMVLVNAIVFKGLWEKAFKDEDTQAMPFRVTEQESKPVQMMYQIGLFRVASMASEKMKILELPFASGTMSMLVLLPDEVSGLEQLESIINFEKLTEWTSSNVMEERKIKVYLPRMKMEEKYNLTSVLMAMGITDVFSSSANLSGISSAESLKISQAVHAAHAEINEAGREVVGSAEAGVDAASVSEEFRADHPFLFCIKHIATNAVLFFGRCVSP
particle diameter of the standard: 6.1 nm
